In patent publication US20190055322A1 (Ablynx, published 2019):

B1: Nanobody 1E11 (VHH)
VHH: EVQLVESGGGLVQPGGSLRLSCAASGSTRSVNPMAWFRQAPGRQREWVATISRSGYATYADSVKGRFTISGDNAKSSVYLQMNSLKPEDTAVYYCVTGTYWGQGTLVTVSS
notes: also called 01E11
B2: Nanobody 5H01 (VHH)
VHH: EVQLVESGGGLVQPGGSLRLSCAASGSTLDYYAIGWFRQAPGKEREGVSCTSNSGSTYYGGSVKGRFTASRDNAKNTVYLQMNSLRPEDTAVYYCVATIGCATLGGTLDVQRYYYRGQGTQVTVSS
notes: also called 05H01
B3: Nanobody 6B05 (VHH)
VHH: EVQLVESGGGLVQPGGSLRLSCAASGSIFSINTMGWYRQAPGKQRELVSTITSNLVPHYADSVQGRFTISRDNARNTVYLQMNSLKPQDTAHYYCNAWARSSGATPYTNYWGQGTLVTVSS
notes: also called 06B05
B4: Fab 13.37 (Fab, V domains shown)
VH: QVQLVESGGGVVQPGRSLRLSCAASGFTFSSYPLHWVRQAPGKGLEWVSFISYDGSEKYYASSVKGRFTISRDNSENTLYLQMNSLRPEDTAVYYCARNRGDIYYDFTYAMDIWGQGTMVTVSS
VL: DIQMTQSPSSLSASVGDRVTITCRASQSISRWVAWYQQRPGKAPNLLIYDASSLKSGVPSRFSGSGSGTEFTLTISSLQPEDIATYYCQQFWGTPYTFGQGTKLEIKR
B5: Nanobody 7E09 (VHH)
VHH: EVQLVESGGGLVQAGGSLRLSCAASGRTFSSYIMGWFRQAPGKAREFVADITWGQRPYYADSVKGRFTISRDNAKNTVYLEMNSLKPEDTAVYYCAADLGVVIREEHAYWGQGTLVTVSS
notes: also called 07E09
B6: Nanobody 13F07 (VHH)
VHH: EVQLVESGGGLVQAGGSLRLSCAASGNTFSTNPMYWYRQAEGKQRELVASISSRGITNYADSVRGRFSISRDNTKDTVYLQMNSLKPEDTAVYYCRLASLSSGTVYWGKGTLVTVSS
B7: Nanobody 14E10 (VHH)
VHH: EVQLVESGGGLVQPGGSLRLSCAASGRIFSINTMGWYRQAPGKQRELVAGVTINAITNYADSVKGRFTISRDNAKNTVWLQMNSLKPEDTAVYYCHAWARSSGSAPYSQNWGQGTQVTVSS
B8: Nanobody 2B10 (VHH)
VHH: EVQLVESGGGLVQPGGSLRLSCAASGSIFSINNMGWYRQAPGKQRELVTVVTSNLITTYADSVKGRFTISRDNAKNTVYLQMNSLKPEDTAVYYCNAWARSVGSVPYSQFWGQGTLVTVSS
notes: also called 02B10
B9: Nanobody 275 (2G09-40GS-5H01) (VHH)
chain: EVQLVESGGGLVQPGGSLRLSCAASGSFGDNYELYAMTWFRQAPGERRDFVASVTGDGSTSYADSVKDRFTISRDNAKKLMYLQMNSLKPEDTAVYYCRLLNYWGQGTLVTVSSGGGGSGGGGSGGGGSGGGGSGGGGSGGGGSGGGGSGGGGSEVQLVESGGGLVQPGGSLRLSCAASGSTLDYYAIGWFRQAPGKEREGVSCTSNSGSTYYGGSVKGRFTASRDNAKNTVYLQMNSLRPEDTAVYYCVATIGCATLGGTLDVQRYYYRGQGTLVTVSS
B10: Nanobody 277 (5H01-40GS-11B09) (VHH)
chain: EVQLVESGGGLVQPGGSLRLSCAASGSTLDYYAIGWFRQAPGKEREGVSCTSNSGSTYYGGSVKGRFTASRDNAKNTVYLQMNSLRPEDTAVYYCVATIGCATLGGTLDVQRYYYRGQGTLVTVSSGGGGSGGGGSGGGGSGGGGSGGGGSGGGGSGGGGSGGGGSEVQLVESGGGLVQAGGSLRLSCAASRLTFNHYNMGWFRQAPGKERERVAEVTWSGDKIYYVDSVKGRFTISRDNTPNPVYLYLQMNSLKPEDTAVYYCATAPRGLPYANGYWGQGTLVTVSS
B11: Nanobody 285 (13F07-40GS-2B02) (VHH)
chain: EVQLVESGGGLVQAGGSLRLSCAASGNTFSTNPMYWYRQAEGKQRELVASISSRGITNYADSVRGRFSISRDNTKDTVYLQMNSLKPEDTAVYYCRLASLSSGTVYWGKGTLVTVSSGGGGSGGGGSGGGGSGGGGSGGGGSGGGGSGGGGSGGGGSEVQLVESGGGLVQPGDSLRLSCAASGRILSINNMVWYRQAPGKQRELVAHITSSGSTGYADSVKGRFTISRDNAKNTFYLQMTNLNPEDTAVYYCNCWVSSDSNAPLKNYWGQGTLVTVSS
B12: Nanobody 319 (13F07-40GS-6B05) (VHH)
chain: EVQLVESGGGLVQAGGSLRLSCAASGNTFSTNPMYWYRQAEGKQRELVASISSRGITNYADSVRGRFSISRDNTKDTVYLQMNSLKPEDTAVYYCRLASLSSGTVYWGKGTLVTVSSGGGGSGGGGSGGGGSGGGGSGGGGSGGGGSGGGGSGGGGSEVQLVESGGGLVQPGGSLRLSCAASGSIFSINTMGWYRQAPGKQRELVSTITSNLVPHYADSVQGRFTISRDNARNTVYLQMNSLKPQDTAHYYCNAWARSSGATPYTNYWGQGTLVTVSS
B13: Nanobody 335 (5H01-40GS-1E11) (VHH)
chain: EVQLVESGGGLVQPGGSLRLSCAASGSTLDYYAIGWFRQAPGKEREGVSCTSNSGSTYYGGSVKGRFTASRDNAKNTVYLQMNSLRPEDTAVYYCVATIGCATLGGTLDVQRYYYRGQGTLVTVSSGGGGSGGGGSGGGGSGGGGSGGGGSGGGGSGGGGSGGGGSEVQLVESGGGLVQPGGSLRLSCAASGSTRSVNPMAWFRQAPGRQREWVATISRSGYATYADSVKGRFTISGDNAKSSVYLQMNSLKPEDTAVYYCVTGTYWGQGTLVTVSS

target: Full length PcrV (aa 1-294), C-terminal c-myc and His6 tags (Pseudomonas aeruginosa strain PAO1); assay: ELISA, binder coated
Throughout, for cytotox assay (% inhibition), P3X63, PA103: test concentration or dose not given here.

| Binder | binding result |
| --- | --- |
| B1 | binds |
| B2 | binds |
| B3 | binds |
| B4 | binds |
| B5 | binds |
| B6 | binds |
| B7 | binds |
| B8 | binds |

target: T1, PcrV of P. aeruginosa strain PA103 (on TTSS-induced bacteria) (Pseudomonas aeruginosa strain PA103); assay: cell-based or functional assay

| Binder | cytotox assay (% inhibition), P3X63, PA103 [%] |
| --- | --- |
| B1 | 33 |
| B2 | 76 |
| B3 | 32 |
| B5 | 16 |
| B6 | 13 |
| B7 | 22 |
| B8 | 38 |

target: T1, PcrV of P. aeruginosa strain PA103 (on …); assay: cell-based or functional assay; remark: another data set of the same source

| Binder | % inhibition, P3X63 cytotoxicity assay, MOI 4 [%] | IC50 (nM), P3X63 cytotoxicity assay, MOI 4 [nM] | % inhibition, P3X63 cytotoxicity assay, MOI 3 [%] | IC50 (nM), P3X63 cytotoxicity assay, MOI 3 [nM] | % inhibition, P3X63 cytotoxicity assay, MOI 1.5 [%] | IC50 (nM), P3X63 cytotoxicity assay, MOI 1.5 [nM] |
| --- | --- | --- | --- | --- | --- | --- |
| B1 | 58 | 23 |  |  |  |  |
| B2 | 100 | 7 |  |  |  |  |
| B3 |  |  | 100 | 435 |  |  |
| B4 | 100 | 8 | 100 | 1 | 100 | 1 |
| B6 |  |  |  |  | > 20 | 35600 |
| B7 |  |  | 100 | > 3000 |  |  |
| B8 | 100 | 647 |  |  |  |  |

target: T1, PcrV of P. aeruginosa strain PA103 (on …); assay: cell-based or functional assay; remark: another data set of the same source

| Binder | % inhibition in P3X63 cytotoxicity assay, extract 1/150 [%] |
| --- | --- |
| B9 | 66 |
| B10 | 85 |
| B11 | 59 |
| B12 | 46 |
| B13 | 46 |

target: T1, PcrV of P. aeruginosa strain PA103 (on …); assay: cell-based or functional assay; remark: another data set of the same source

| Binder | Efficacy (%), P3X63 cytotoxicity, MOI 12 [%] | IC50 value (M), P3X63 cytotoxicity, MOI 12 [M] |
| --- | --- | --- |
| B4 | 100 | 5.4e-10 |
| B9 | 100 | 3.7e-09 |
| B10 | 100 | 1.3e-11 |
| B11 | 100 | 6.1e-11 |
| B12 | 100 | 8.1e-11 |
| B13 | 100 | 6.4e-11 |

target: T1, PcrV of P. aeruginosa strain PA103 (on …); assay: cell-based or functional assay; remark: another data set of the same source

| Binder | Ratio (IC50 Fab 13.37/IC50 Nanobody), A549 cytotoxicity [fold] |
| --- | --- |
| B9 | 1 |
| B10 | 8 |
| B11 | 1 |
| B12 | 2 |
| B13 | 1 |

target: GST-PcrV (strain PAO1, amino acid residues 1-294) (Pseudomonas aeruginosa strain PAO1); assay: SPR Biacore T100, GST-PcrV immobilised

| Binder | Kd [nM] | koff [s⁻¹] | kon [M⁻¹ s⁻¹] |
| --- | --- | --- | --- |
| B2 | 1 | 0.00014 | 160000 |
| B8 | 0.5 | 0.00025 | 510000 |

target: T2, recombinant PcrV protein (rPcrV), strain PAO1, amino acid residues 1-294, C-terminal His6 (Pseudomonas aeruginosa strain PAO1); assay: ELISA, periplasmic extract on biotinylated rPcrV

| Binder | binding ELISA (OD 450 nm) |
| --- | --- |
| B1 | 2.56 |
| B2 | 2.69 |
| B3 | 2.55 |
| B5 | 2.59 |
| B8 | 2.57 |

target: T2, recombinant PcrV protein (rPcrV), …; assay: SPR ProteOn, periplasmic extract on immobilised rPcrV

| Binder | koff [s⁻¹] |
| --- | --- |
| B1 | 0.00035 |
| B2 | 4.9e-05 |
| B3 | 0.00018 |
| B5 | 0.0004 |
| B6 | 0.00092 |
| B7 | 0.0006 |
| B8 | 0.00018 |

target: T3, PcrV fragment (aa 144-257), C-terminal c-myc and His6 tags (Pseudomonas aeruginosa); assay: ELISA, binder coated; NB = binding signal = background signal
T3 construct: also called small PcrV fragment

| Binder | binding result |
| --- | --- |
| B5 | no binding |
| B6 | no binding |
| B7 | no binding |
